Reference: patent US20230357348A1 (AstraZeneca / MedImmune, published 2023)
Starred links: 1 amine or outer side, 2 acyl side, 3 side chain; linkers in the order of their positions; H or OH if unused. Non-standard residues stand in square brackets, D forms with d. Groups on a side chain read outwards from the residue. No end group written: not given here. *: point of attachment. C18 diacid = O=C(O)CCCCCCCCCCCCCCCCC(=O)*; γGlu = O=C(O)[C@H](CCC(=O)[*:2])N[*:1]; αMeF = C[C@](N)(Cc1ccccc1)C(=O)O; AEEA = NCCOCCOCC(=O)O; Aib = CC(C)(N)C(=O)O

B1: Peptide 39 (peptide)
peptide: H[Aib]QGTFTSDVSK[αMeF]LDSK([AEEA-AEEA-γGlu-C18 diacid])RAQDFVRWLL[Aib]TE-OH
modifications: N-terminus assumed
SMILES: CC(C)C[C@H](NC(=O)[C@H](Cc1c[nH]c2ccccc12)NC(=O)[C@H](CCCNC(=N)N)NC(=O)[C@@H](NC(=O)[C@H](Cc1ccccc1)NC(=O)[C@H](CC(=O)O)NC(=O)[C@H](CCC(N)=O)NC(=O)[C@H](C)NC(=O)[C@H](CCCNC(=N)N)NC(=O)[C@H](CCCCNC(=O)COCCOCCNC(=O)COCCOCCNC(=O)CC[C@H](NC(=O)CCCCCCCCCCCCCCCCC(=O)O)C(=O)O)NC(=O)[C@H](CO)NC(=O)[C@H](CC(=O)O)NC(=O)[C@H](CC(C)C)NC(=O)[C@](C)(Cc1ccccc1)NC(=O)[C@H](CCCCN)NC(=O)[C@H](CO)NC(=O)[C@@H](NC(=O)[C@H](CC(=O)O)NC(=O)[C@H](CO)NC(=O)[C@@H](NC(=O)[C@H](Cc1ccccc1)NC(=O)[C@@H](NC(=O)CNC(=O)[C@H](CCC(N)=O)NC(=O)C(C)(C)NC(=O)[C@@H](N)Cc1c[nH]cn1)[C@@H](C)O)[C@@H](C)O)C(C)C)C(C)C)C(=O)N[C@@H](CC(C)C)C(=O)NC(C)(C)C(=O)N[C@H](C(=O)N[C@@H](CCC(=O)O)C(=O)O)[C@@H](C)O
B2: Peptide 168 (peptide)
peptide: H[Aib]QGTFTSDVSK[αMeF]LDSK([AEEA-AEEA-γGlu-C18 diacid])RARDFVAWLL[Aib]TE-OH
modifications: N-terminus assumed
SMILES: CC(C)C[C@H](NC(=O)[C@H](Cc1c[nH]c2ccccc12)NC(=O)[C@H](C)NC(=O)[C@@H](NC(=O)[C@H](Cc1ccccc1)NC(=O)[C@H](CC(=O)O)NC(=O)[C@H](CCCNC(=N)N)NC(=O)[C@H](C)NC(=O)[C@H](CCCNC(=N)N)NC(=O)[C@H](CCCCNC(=O)COCCOCCNC(=O)COCCOCCNC(=O)CC[C@H](NC(=O)CCCCCCCCCCCCCCCCC(=O)O)C(=O)O)NC(=O)[C@H](CO)NC(=O)[C@H](CC(=O)O)NC(=O)[C@H](CC(C)C)NC(=O)[C@](C)(Cc1ccccc1)NC(=O)[C@H](CCCCN)NC(=O)[C@H](CO)NC(=O)[C@@H](NC(=O)[C@H](CC(=O)O)NC(=O)[C@H](CO)NC(=O)[C@@H](NC(=O)[C@H](Cc1ccccc1)NC(=O)[C@@H](NC(=O)CNC(=O)[C@H](CCC(N)=O)NC(=O)C(C)(C)NC(=O)[C@@H](N)Cc1c[nH]cn1)[C@@H](C)O)[C@@H](C)O)C(C)C)C(C)C)C(=O)N[C@@H](CC(C)C)C(=O)NC(C)(C)C(=O)N[C@H](C(=O)N[C@@H](CCC(=O)O)C(=O)O)[C@@H](C)O
B3: Peptide 150 (peptide)
peptide: H[Aib]QGTFTSDVSK[αMeF]LDSK([AEEA-AEEA-γGlu-C18 diacid])RAQDFVQWLL[Aib]TE-OH
modifications: N-terminus assumed
SMILES: CC(C)C[C@H](NC(=O)[C@H](Cc1c[nH]c2ccccc12)NC(=O)[C@H](CCC(N)=O)NC(=O)[C@@H](NC(=O)[C@H](Cc1ccccc1)NC(=O)[C@H](CC(=O)O)NC(=O)[C@H](CCC(N)=O)NC(=O)[C@H](C)NC(=O)[C@H](CCCNC(=N)N)NC(=O)[C@H](CCCCNC(=O)COCCOCCNC(=O)COCCOCCNC(=O)CC[C@H](NC(=O)CCCCCCCCCCCCCCCCC(=O)O)C(=O)O)NC(=O)[C@H](CO)NC(=O)[C@H](CC(=O)O)NC(=O)[C@H](CC(C)C)NC(=O)[C@](C)(Cc1ccccc1)NC(=O)[C@H](CCCCN)NC(=O)[C@H](CO)NC(=O)[C@@H](NC(=O)[C@H](CC(=O)O)NC(=O)[C@H](CO)NC(=O)[C@@H](NC(=O)[C@H](Cc1ccccc1)NC(=O)[C@@H](NC(=O)CNC(=O)[C@H](CCC(N)=O)NC(=O)C(C)(C)NC(=O)[C@@H](N)Cc1c[nH]cn1)[C@@H](C)O)[C@@H](C)O)C(C)C)C(C)C)C(=O)N[C@@H](CC(C)C)C(=O)NC(C)(C)C(=O)N[C@H](C(=O)N[C@@H](CCC(=O)O)C(=O)O)[C@@H](C)O
B4: Peptide 4 (peptide)
peptide: HSQGS[αMeF]TSDVSK[αMeF]LDSK([AEEA-AEEA-γGlu-C18 diacid])AAQDFVQWIANT-NH2
modifications: N-terminus assumed
SMILES: CC[C@H](C)[C@H](NC(=O)[C@H](Cc1c[nH]c2ccccc12)NC(=O)[C@H](CCC(N)=O)NC(=O)[C@@H](NC(=O)[C@H](Cc1ccccc1)NC(=O)[C@H](CC(=O)O)NC(=O)[C@H](CCC(N)=O)NC(=O)[C@H](C)NC(=O)[C@H](C)NC(=O)[C@H](CCCCNC(=O)COCCOCCNC(=O)COCCOCCNC(=O)CC[C@H](NC(=O)CCCCCCCCCCCCCCCCC(=O)O)C(=O)O)NC(=O)[C@H](CO)NC(=O)[C@H](CC(=O)O)NC(=O)[C@H](CC(C)C)NC(=O)[C@](C)(Cc1ccccc1)NC(=O)[C@H](CCCCN)NC(=O)[C@H](CO)NC(=O)[C@@H](NC(=O)[C@H](CC(=O)O)NC(=O)[C@H](CO)NC(=O)[C@@H](NC(=O)[C@](C)(Cc1ccccc1)NC(=O)[C@H](CO)NC(=O)CNC(=O)[C@H](CCC(N)=O)NC(=O)[C@H](CO)NC(=O)[C@@H](N)Cc1c[nH]cn1)[C@@H](C)O)C(C)C)C(C)C)C(=O)N[C@@H](C)C(=O)N[C@@H](CC(N)=O)C(=O)N[C@H](C(N)=O)[C@@H](C)O
B5: Peptide 140 (peptide)
peptide: H[Aib]QGTFTSDVSK[αMeF]LDTK([AEEA-AEEA-γGlu-C18 diacid])RAQDFVRWLLE[Aib]G-OH
modifications: N-terminus assumed
SMILES: CC(C)C[C@H](NC(=O)[C@H](Cc1c[nH]c2ccccc12)NC(=O)[C@H](CCCNC(=N)N)NC(=O)[C@@H](NC(=O)[C@H](Cc1ccccc1)NC(=O)[C@H](CC(=O)O)NC(=O)[C@H](CCC(N)=O)NC(=O)[C@H](C)NC(=O)[C@H](CCCNC(=N)N)NC(=O)[C@H](CCCCNC(=O)COCCOCCNC(=O)COCCOCCNC(=O)CC[C@H](NC(=O)CCCCCCCCCCCCCCCCC(=O)O)C(=O)O)NC(=O)[C@@H](NC(=O)[C@H](CC(=O)O)NC(=O)[C@H](CC(C)C)NC(=O)[C@](C)(Cc1ccccc1)NC(=O)[C@H](CCCCN)NC(=O)[C@H](CO)NC(=O)[C@@H](NC(=O)[C@H](CC(=O)O)NC(=O)[C@H](CO)NC(=O)[C@@H](NC(=O)[C@H](Cc1ccccc1)NC(=O)[C@@H](NC(=O)CNC(=O)[C@H](CCC(N)=O)NC(=O)C(C)(C)NC(=O)[C@@H](N)Cc1c[nH]cn1)[C@@H](C)O)[C@@H](C)O)C(C)C)[C@@H](C)O)C(C)C)C(=O)N[C@@H](CC(C)C)C(=O)N[C@@H](CCC(=O)O)C(=O)NC(C)(C)C(=O)NCC(=O)O

Key:
Experiment in all cases: cell-based or functional assay
[1] = biological target: human GLP-1 receptor (hGLP-1R) (human, UniProt P43220 24-463)
[2] = biological target: human glucagon receptor (hGCGR) (human, UniProt P47871 26-477)
Target sequence in this assay (P47871 26-477): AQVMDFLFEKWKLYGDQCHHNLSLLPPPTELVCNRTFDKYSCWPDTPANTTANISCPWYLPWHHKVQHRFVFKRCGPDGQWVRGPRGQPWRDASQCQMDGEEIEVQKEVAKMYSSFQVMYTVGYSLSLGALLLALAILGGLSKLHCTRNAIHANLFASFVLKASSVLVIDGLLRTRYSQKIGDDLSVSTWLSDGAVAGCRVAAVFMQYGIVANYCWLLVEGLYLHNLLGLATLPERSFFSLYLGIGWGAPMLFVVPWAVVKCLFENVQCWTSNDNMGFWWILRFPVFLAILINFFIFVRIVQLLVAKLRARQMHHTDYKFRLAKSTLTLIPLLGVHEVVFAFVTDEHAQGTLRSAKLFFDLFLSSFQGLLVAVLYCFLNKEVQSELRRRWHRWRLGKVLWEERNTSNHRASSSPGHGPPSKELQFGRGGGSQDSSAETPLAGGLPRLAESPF

[3] = biological target: human GLP-1 receptor (hGLP-1R) (human, UniProt P43220 24-463); remark: listed apart in the source
[4] = biological target: human glucagon receptor (hGCGR) (human, UniProt P47871 26-477); remark: listed apart in the source
Target sequence in this assay (P47871 26-477): as above

Row | Binder | hGLP-1R EC50 (pM) [1] [pM] | hGluc-R EC50 (pM) [2] [pM] | hGLP-1R EC50 (pM) [3] [pM] | hGluc-R EC50 (pM) [4] [pM]
1 | B1 | 76.1 | 194 | – | –
2 | B2 | 448 | 886 | – | –
3 | B3 | – | – | 166 | 355
4 | B4 | – | – | 240 | 1170
5 | B5 | – | – | 22.7 | –
